The values that follow come from patent publication US20110086019A1 (DOMANTIS, published 2011).

The target in assay [1] is human TNFR1 (soluble recombinant protein) (human) (UniProt P19438). Briefly: phage ELISA on plate coated with 1 nM TNFR1, anti-M13-HRP; 0 µg/ml trypsin; phage input 1.13E+10.
For assay [2] the target is unchanged. Put plainly: phage ELISA on plate coated with 1 nM TNFR1, anti-M13-HRP; 0 µg/ml trypsin; phage input 1.41E+09.
The target is the same in assay [3]. Briefly: phage ELISA on plate coated with 1 nM TNFR1, anti-M13-HRP; 0 µg/ml trypsin; phage input 2.26E+10. Background: ELISA stands for enzyme-linked immunosorbent assay.
Assay [4] has the same target. Put plainly: phage ELISA on plate coated with 1 nM TNFR1, anti-M13-HRP; 0 µg/ml trypsin; phage input 2.82E+09.
The target is the same in assay [5]. Put plainly: phage ELISA on plate coated with 1 nM TNFR1, anti-M13-HRP; 0 µg/ml trypsin; phage input 3.52E+08.
Assay [6] shares this target. Briefly: phage ELISA on plate coated with 1 nM TNFR1, anti-M13-HRP; 0 µg/ml trypsin; phage input 4.51E+10.
Assay [7] has the same target. Briefly: phage ELISA on plate coated with 1 nM TNFR1, anti-M13-HRP; 0 µg/ml trypsin; phage input 5.64E+09.
The target is the same in assay [8]. Put plainly: phage ELISA on plate coated with 1 nM TNFR1, anti-M13-HRP; 0 µg/ml trypsin; phage input 7.05E+08.
Assay [9] shares this target. Put plainly: phage ELISA on plate coated with 1 nM TNFR1, anti-M13-HRP; phage treated 1 h at room temperature with 1 mg/ml trypsin; phage input 1.13E+10.
For assay [10] the target is unchanged. Put plainly: phage ELISA on plate coated with 1 nM TNFR1, anti-M13-HRP; phage treated 1 h at room temperature with 1 mg/ml trypsin; phage input 1.41E+09.
Assay [11] has the same target. Briefly: phage ELISA on plate coated with 1 nM TNFR1, anti-M13-HRP; phage treated 1 h at room temperature with 1 mg/ml trypsin; phage input 2.26E+10.
Assay [12] has the same target. Briefly: phage ELISA on plate coated with 1 nM TNFR1, anti-M13-HRP; phage treated 1 h at room temperature with 1 mg/ml trypsin; phage input 2.82E+09.
Assay [13] shares this target. Briefly: phage ELISA on plate coated with 1 nM TNFR1, anti-M13-HRP; phage treated 1 h at room temperature with 1 mg/ml trypsin; phage input 3.52E+08.
The target is the same in assay [14]. Put plainly: phage ELISA on plate coated with 1 nM TNFR1, anti-M13-HRP; phage treated 1 h at room temperature with 1 mg/ml trypsin; phage input 4.51E+10.
For assay [15] the target is unchanged. Briefly: phage ELISA on plate coated with 1 nM TNFR1, anti-M13-HRP; phage treated 1 h at room temperature with 1 mg/ml trypsin; phage input 5.64E+09.
For assay [16] the target is unchanged. Put plainly: phage ELISA on plate coated with 1 nM TNFR1, anti-M13-HRP; phage treated 1 h at room temperature with 1 mg/ml trypsin; phage input 7.05E+08.
Assay [17] has the same target. Briefly: phage ELISA on plate coated with 1 nM TNFR1, anti-M13-HRP; phage treated 1 h at room temperature with 10 µg/ml trypsin; phage input 1.13E+10.
For assay [18] the target is unchanged. Put plainly: phage ELISA on plate coated with 1 nM TNFR1, anti-M13-HRP; phage treated 1 h at room temperature with 10 µg/ml trypsin; phage input 1.41E+09.
The target is the same in assay [19]. Briefly: phage ELISA on plate coated with 1 nM TNFR1, anti-M13-HRP; phage treated 1 h at room temperature with 10 µg/ml trypsin; phage input 2.26E+10.
Assay [20] has the same target. Put plainly: phage ELISA on plate coated with 1 nM TNFR1, anti-M13-HRP; phage treated 1 h at room temperature with 10 µg/ml trypsin; phage input 2.82E+09.
Assay [21] shares this target. Put plainly: phage ELISA on plate coated with 1 nM TNFR1, anti-M13-HRP; phage treated 1 h at room temperature with 10 µg/ml trypsin; phage input 3.52E+08.
Assay [22] shares this target. Put plainly: phage ELISA on plate coated with 1 nM TNFR1, anti-M13-HRP; phage treated 1 h at room temperature with 10 µg/ml trypsin; phage input 4.51E+10.
For assay [23] the target is unchanged. Briefly: phage ELISA on plate coated with 1 nM TNFR1, anti-M13-HRP; phage treated 1 h at room temperature with 10 µg/ml trypsin; phage input 5.64E+09.
Assay [24] has the same target. Briefly: phage ELISA on plate coated with 1 nM TNFR1, anti-M13-HRP; phage treated 1 h at room temperature with 10 µg/ml trypsin; phage input 7.05E+08.
Assay [25] has the same target. Briefly: phage ELISA on plate coated with 1 nM TNFR1, anti-M13-HRP; phage treated 1 h at room temperature with 100 µg/ml trypsin; phage input 1.13E+10.
The target is the same in assay [26]. Put plainly: phage ELISA on plate coated with 1 nM TNFR1, anti-M13-HRP; phage treated 1 h at room temperature with 100 µg/ml trypsin; phage input 1.41E+09.
Assay [27] shares this target. Put plainly: phage ELISA on plate coated with 1 nM TNFR1, anti-M13-HRP; phage treated 1 h at room temperature with 100 µg/ml trypsin; phage input 2.26E+10.
Assay [28] has the same target. Put plainly: phage ELISA on plate coated with 1 nM TNFR1, anti-M13-HRP; phage treated 1 h at room temperature with 100 µg/ml trypsin; phage input 2.82E+09.
The target is the same in assay [29]. Briefly: phage ELISA on plate coated with 1 nM TNFR1, anti-M13-HRP; phage treated 1 h at room temperature with 100 µg/ml trypsin; phage input 3.52E+08.
Assay [30] shares this target. Briefly: phage ELISA on plate coated with 1 nM TNFR1, anti-M13-HRP; phage treated 1 h at room temperature with 100 µg/ml trypsin; phage input 4.51E+10.
Assay [31] shares this target. Put plainly: phage ELISA on plate coated with 1 nM TNFR1, anti-M13-HRP; phage treated 1 h at room temperature with 100 µg/ml trypsin; phage input 5.64E+09.
Assay [32] shares this target. Briefly: phage ELISA on plate coated with 1 nM TNFR1, anti-M13-HRP; phage treated 1 h at room temperature with 100 µg/ml trypsin; phage input 7.05E+08.
The target in another assay is T1, TNFR1-FC fusion (human, UniProt P19438 22-211).
T1 construct: not shown: Fc part not described (captured with goat anti-human IgG (H&L))
T1 sequence (looked up): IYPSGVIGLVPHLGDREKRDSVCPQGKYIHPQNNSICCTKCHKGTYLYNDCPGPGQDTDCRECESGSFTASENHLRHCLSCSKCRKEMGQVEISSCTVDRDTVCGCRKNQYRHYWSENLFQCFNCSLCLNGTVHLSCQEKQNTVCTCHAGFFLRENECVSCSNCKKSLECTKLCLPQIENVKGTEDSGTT
Briefly: human TNFR1 receptor binding assay: inhibition of the binding of TNF-alpha (10 ng/ml) to bead-captured TNFR1-Fc; four replicates.

Take DOM1h-131 phage: the phage ELISA signal came to 0.949 in assay [1]; 0.85 in assay [2]; 0.944 in assay [3]; 0.946 in [4]; 0.577 in assay [5]; 0.916 in assay [6]. Besides, the phage ELISA signal in [7] was 0.962; in assay [8], 0.705; in [9], 0.183; in assay [10] it was 0.089; in assay [11] it was 0.229; in assay [12], 0.114. Further, the phage ELISA signal is 0.08 in assay [13]; 0.284 in [14]; 0.133 in [15]; 0.084 in [16]; 0.86 in [17]; 0.409 in assay [18]. Further, the phage ELISA signal in assay [19] was 0.802; in [20], 0.573; in [21], 0.213; in assay [22], 0.784; in [23], 0.695; in assay [24], 0.286. Moreover, the phage ELISA signal is 0.284 in assay [25]; 0.115 in [26]; 0.377 in assay [27]; 0.141 in assay [28]; 0.084 in [29]; 0.418 in assay [30]. The phage ELISA signal in [31] was 0.196; in assay [32], 0.084.

B1: DOM1h-131-202 (other)
VH: EVQLLESGGGLVQPGGSLRLSCAASGFTFAHETMVWVRQAPGKGLEWVSHIPPDGQDPFYADSVKGRFTISRDNSKNTLYLQMNSLRAEDTAVYYCALLPKRGPWFDYWGQGTLVTVSS
notes: also called GSK1922567A
For B1, in the assay with TNFR1-FC fusion, the “IC50 (read off the curve)” value is about 0.2 nM.
